{"source": "paper PMC3226482", "about": "(Molecular Biology of the Cell, 2011)", "binders": {"B1": {"name": "MBP-hsNXF1-N (domain or fragment)", "chain": "MADEGKSYSEHDDERVNFPQRKKKGRGPFRWKYGEGNRRSGRGGSGIRSSRLEEDDGDVAMSDAQDGPRVRYNPYTTRPNRRGDTWHDRDRIHVTVRRDRAPPERGGAG"}, "B2": {"name": "GST-hsNXF1 (full-length human NXF1) (natural protein)", "chain": "MADEGKSYSEHDDERVNFPQRKKKGRGPFRWKYGEGNRRSGRGGSGIRSSRLEEDDGDVAMSDAQDGPRVRYNPYTTRPNRRGDTWHDRDRIHVTVRRDRAPPERGGAGTSQDGTSKNWFKITIPYGRKYDKAWLLSMIQSKCSVPFTPIEFHYENTRAQFFVEDASTASALKAVNYKILDRENRRISIIINSSAPPHTILNELKPEQVEQLKLIMSKRYDGSQQALDLKGLRSDPDLVAQNIDVVLNRRSCMAATLRIIEENIPELLSLNLSNNRLYRLDDMSSIVQKAPNLKILNLSGNELKSERELDKIKGLKLEELWLDGNSLCDTFRDQSTYISAIRERFPKLLRLDGHELPPPIAFDVEAPTTLPPCKGSYFGTENLKSLVLHFLQQYYAIYDSGDRQGLLDAYHDGACCSLSIPFIPQNPARSSLAEYFKDSRNVKKLKDPTLRFRLLKHTRLNVVAFLNELPKTQHDVNSFVVDISAQTSTLLCFSVNGVFKEVDGKSRDSLRAFTRTFIAVPASNSGLCIVNDELFVRNASSEEIQRAFAMPAPTPSSSPVPTLSPEQQEMLQAFSTQSGMNLEWSQKCLQDNNWDYTRSAQAFTHLKAKGEIPEVAFMK"}, "B3": {"name": "hsNXF1 fragment, residues 1-92 (domain or fragment)", "chain": "MADEGKSYSEHDDERVNFPQRKKKGRGPFRWKYGEGNRRSGRGGSGIRSSRLEEDDGDVAMSDAQDGPRVRYNPYTTRPNRRGDTWHDRDRI"}}, "key": {"karyopherin β2 [1]": {"target": "T1, karyopherin β2 (human, UniProt Q92973 1-898)", "T1 sequence": "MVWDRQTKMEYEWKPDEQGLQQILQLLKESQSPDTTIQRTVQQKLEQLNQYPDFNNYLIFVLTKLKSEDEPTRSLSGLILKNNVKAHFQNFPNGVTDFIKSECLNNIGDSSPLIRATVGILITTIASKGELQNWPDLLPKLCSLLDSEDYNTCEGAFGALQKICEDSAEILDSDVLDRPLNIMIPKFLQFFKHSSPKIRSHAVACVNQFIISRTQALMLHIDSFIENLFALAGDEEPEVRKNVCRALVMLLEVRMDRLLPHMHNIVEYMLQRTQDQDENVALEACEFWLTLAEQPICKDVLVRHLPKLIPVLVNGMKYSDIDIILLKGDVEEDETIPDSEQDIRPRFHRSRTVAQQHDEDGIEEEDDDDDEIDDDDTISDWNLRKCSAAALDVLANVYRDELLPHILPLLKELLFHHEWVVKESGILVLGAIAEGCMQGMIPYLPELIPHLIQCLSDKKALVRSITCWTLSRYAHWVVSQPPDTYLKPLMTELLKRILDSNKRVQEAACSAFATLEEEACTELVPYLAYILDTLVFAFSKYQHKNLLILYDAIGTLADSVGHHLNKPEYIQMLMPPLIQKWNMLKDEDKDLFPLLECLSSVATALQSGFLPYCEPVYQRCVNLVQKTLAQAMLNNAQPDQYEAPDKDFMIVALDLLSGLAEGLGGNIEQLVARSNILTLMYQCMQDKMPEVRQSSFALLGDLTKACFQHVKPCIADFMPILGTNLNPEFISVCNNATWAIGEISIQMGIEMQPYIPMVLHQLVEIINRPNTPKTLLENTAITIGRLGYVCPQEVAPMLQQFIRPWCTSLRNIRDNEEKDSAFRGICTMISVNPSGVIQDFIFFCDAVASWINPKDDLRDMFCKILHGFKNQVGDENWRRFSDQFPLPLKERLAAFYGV", "assay": "ITC"}, "importin β [2]": {"target": "T2, importin β (human, UniProt Q14974 1-876)", "T2 sequence (Q14974 whole entry)": "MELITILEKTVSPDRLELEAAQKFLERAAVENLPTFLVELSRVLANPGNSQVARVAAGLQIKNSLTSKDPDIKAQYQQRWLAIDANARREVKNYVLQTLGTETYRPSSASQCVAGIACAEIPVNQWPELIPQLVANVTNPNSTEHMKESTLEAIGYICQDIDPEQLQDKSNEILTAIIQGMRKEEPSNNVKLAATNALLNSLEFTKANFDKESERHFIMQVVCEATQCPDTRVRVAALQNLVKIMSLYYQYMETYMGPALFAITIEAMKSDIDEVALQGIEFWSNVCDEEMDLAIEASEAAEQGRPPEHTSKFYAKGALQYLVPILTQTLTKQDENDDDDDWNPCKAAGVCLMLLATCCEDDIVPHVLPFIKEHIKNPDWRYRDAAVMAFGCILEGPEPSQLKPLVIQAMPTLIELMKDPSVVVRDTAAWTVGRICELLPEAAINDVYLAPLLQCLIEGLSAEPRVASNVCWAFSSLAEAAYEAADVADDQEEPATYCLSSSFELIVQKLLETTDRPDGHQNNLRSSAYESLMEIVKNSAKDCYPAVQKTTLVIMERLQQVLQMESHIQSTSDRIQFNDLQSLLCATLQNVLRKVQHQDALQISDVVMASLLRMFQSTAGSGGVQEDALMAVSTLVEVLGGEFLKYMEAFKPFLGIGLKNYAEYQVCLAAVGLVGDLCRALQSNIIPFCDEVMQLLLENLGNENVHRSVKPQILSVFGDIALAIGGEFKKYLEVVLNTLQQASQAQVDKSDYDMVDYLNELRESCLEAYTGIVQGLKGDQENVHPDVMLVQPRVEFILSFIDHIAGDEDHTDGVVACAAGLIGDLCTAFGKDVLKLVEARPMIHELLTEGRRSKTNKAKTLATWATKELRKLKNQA", "assay": "ITC"}, "GST-Imp4": {"target": "T3, GST-Imp4 (human, UniProt Q8TEX9 1-1081)", "T3 sequence": "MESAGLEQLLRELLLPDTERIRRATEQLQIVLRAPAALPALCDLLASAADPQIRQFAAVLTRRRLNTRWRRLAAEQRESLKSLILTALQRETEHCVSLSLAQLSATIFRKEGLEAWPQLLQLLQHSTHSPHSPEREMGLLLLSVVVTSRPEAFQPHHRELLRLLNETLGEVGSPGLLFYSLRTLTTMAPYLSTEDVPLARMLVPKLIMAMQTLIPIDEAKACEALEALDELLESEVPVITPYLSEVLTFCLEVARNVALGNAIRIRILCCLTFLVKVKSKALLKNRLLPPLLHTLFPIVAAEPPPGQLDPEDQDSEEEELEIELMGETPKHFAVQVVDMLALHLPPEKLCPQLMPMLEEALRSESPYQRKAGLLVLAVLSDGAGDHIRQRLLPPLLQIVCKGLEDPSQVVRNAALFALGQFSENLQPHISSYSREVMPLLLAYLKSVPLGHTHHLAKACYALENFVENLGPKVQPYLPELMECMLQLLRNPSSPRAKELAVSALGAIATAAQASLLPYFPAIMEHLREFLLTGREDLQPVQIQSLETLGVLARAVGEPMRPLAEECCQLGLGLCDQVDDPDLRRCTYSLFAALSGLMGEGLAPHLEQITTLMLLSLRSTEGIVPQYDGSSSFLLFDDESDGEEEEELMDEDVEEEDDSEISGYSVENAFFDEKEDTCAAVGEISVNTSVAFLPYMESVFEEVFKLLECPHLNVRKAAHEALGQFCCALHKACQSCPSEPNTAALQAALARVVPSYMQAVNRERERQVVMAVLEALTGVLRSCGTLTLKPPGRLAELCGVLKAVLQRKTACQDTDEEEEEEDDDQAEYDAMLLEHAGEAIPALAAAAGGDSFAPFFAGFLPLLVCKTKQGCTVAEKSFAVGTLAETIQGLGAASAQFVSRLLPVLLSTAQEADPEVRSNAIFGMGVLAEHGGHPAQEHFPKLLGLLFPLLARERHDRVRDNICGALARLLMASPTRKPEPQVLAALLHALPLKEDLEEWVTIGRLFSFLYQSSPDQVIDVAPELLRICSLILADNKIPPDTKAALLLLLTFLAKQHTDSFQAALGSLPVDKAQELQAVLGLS", "assay": "pull-down"}, "GST-Imp11": {"target": "T4, GST-Imp11 (human, UniProt Q9UI26 1-975)", "T4 sequence": "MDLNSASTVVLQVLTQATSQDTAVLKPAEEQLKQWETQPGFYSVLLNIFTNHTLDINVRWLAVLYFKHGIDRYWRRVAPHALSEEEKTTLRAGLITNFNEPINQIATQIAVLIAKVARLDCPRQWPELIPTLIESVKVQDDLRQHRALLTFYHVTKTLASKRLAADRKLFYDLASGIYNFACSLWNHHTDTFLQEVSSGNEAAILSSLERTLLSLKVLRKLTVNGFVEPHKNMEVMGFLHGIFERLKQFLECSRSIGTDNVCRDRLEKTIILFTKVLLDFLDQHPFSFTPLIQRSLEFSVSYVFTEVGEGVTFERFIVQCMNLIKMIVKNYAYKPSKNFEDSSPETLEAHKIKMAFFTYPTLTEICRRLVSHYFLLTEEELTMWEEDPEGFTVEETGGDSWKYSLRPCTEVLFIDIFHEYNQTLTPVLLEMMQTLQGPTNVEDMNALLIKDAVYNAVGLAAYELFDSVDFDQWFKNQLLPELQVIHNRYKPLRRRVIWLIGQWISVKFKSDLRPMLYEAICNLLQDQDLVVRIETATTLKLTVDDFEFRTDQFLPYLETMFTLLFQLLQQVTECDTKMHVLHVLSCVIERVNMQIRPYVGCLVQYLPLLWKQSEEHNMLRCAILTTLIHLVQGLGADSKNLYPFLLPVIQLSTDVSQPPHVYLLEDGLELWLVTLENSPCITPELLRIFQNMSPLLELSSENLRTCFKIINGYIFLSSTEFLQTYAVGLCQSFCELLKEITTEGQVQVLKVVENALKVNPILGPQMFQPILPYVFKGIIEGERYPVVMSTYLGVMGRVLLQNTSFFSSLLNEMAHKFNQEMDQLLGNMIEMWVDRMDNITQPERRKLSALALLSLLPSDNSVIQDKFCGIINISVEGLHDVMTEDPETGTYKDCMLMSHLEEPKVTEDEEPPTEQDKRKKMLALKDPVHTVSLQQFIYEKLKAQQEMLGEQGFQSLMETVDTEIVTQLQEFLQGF", "assay": "pull-down"}, "importin 4": {"target": "T5, importin 4 (human, UniProt Q8TEX9 1-1081)", "T5 sequence": "T3 sequence", "assay": "pull-down"}, "importin 11": {"target": "T6, importin 11 (human, UniProt Q9UI26 1-975)", "T6 sequence": "T4 sequence", "assay": "pull-down"}, "importin β [3]": {"target": "T2, importin β", "assay": "pull-down"}, "karyopherin β2 [4]": {"target": "T1, karyopherin β2", "assay": "ITC", "remark": "listed apart in the source"}}, "note": "Read-outs that look alike come from different tables or passages of the source."}
{"binder": "B1", "values": [{"measurement": "Kd", "setting": "karyopherin β2 [1]", "result": 40.5, "unit": "nM"}, {"measurement": "dH", "setting": "karyopherin β2 [1]", "result": -17.2, "unit": "kcal/mol"}, {"measurement": "dH (two-site model, site 1)", "setting": "importin β [2]", "result": -7.51, "unit": "kcal/mol"}, {"measurement": "dH (two-site model, site 2)", "setting": "importin β [2]", "result": -4.6, "unit": "kcal/mol"}, {"measurement": "binding result", "setting": "GST-Imp4", "result": "binds"}, {"measurement": "binding result", "setting": "GST-Imp11", "result": "binds"}]}
{"binder": "B2", "values": [{"measurement": "binding result", "setting": "importin 4", "result": "binds"}, {"measurement": "binding result", "setting": "importin 11", "result": "binds"}, {"measurement": "binding result", "setting": "importin β [3]", "result": "binds"}]}
{"binder": "B3", "values": [{"measurement": "Kd", "setting": "karyopherin β2 [4]", "result": 54, "unit": "nM"}]}
